Laboratory results from patent US12606852B2, “Conversion of lignin-derived monomers to muconate by engineered pseudomonas” (Alliance for Sustainable Energy, LLC, priority 2021, dated 2026).
“And” between values parts separate entries of the source, which are not always exact repeats. Identical values can stand only once.

Experiments:
Assay in all cases: purified protein, by the assay type
[1] = substrate: O=C(O)c1ccc(O)cc1
[2] = substrate: NC(=O)C1=CN([C@@H]2O[C@H](COP(=O)(O)OP(=O)(O)OC[C@H]3O[C@@H](n4cnc5c(N)ncnc54)[C@H](OP(=O)(O)O)[C@@H]3O)[C@@H](O)[C@H]2O)C=CC1
[3] = substrate: NC(=O)C1=CN([C@@H]2O[C@H](COP(=O)(O)OP(=O)(O)OC[C@H]3O[C@@H](n4cnc5c(N)ncnc54)[C@H](O)[C@@H]3O)[C@@H](O)[C@H]2O)C=CC1; conditions: pH 8.0; 25.0 °C

B1: Paenibacillus sp. JJ-1b PraI (para-hydroxybenzoate-3-hydroxylase, PHBH), BAH79107, tagless, praI_EC gene SEQ ID NO: 3 (Paenibacillus sp.) (protein)
chain: RTQVGIIGAGPAGLLLSHLLYLQGIESIIIENRTREEIEGTIRAGVLEQGTVDLMNQMGVGARMMKEGHFHEGFELRFNGRGHRINVHELTGGKYVTVYAQHEVIKDLVAARLQTGGQIHFNVGDVSLHDVDTSSPKIRFRPNKDGELQEIECDFIAGCDGFRGPSRPAIPQSVRKEYQKVYPFSWLGILVEAPPSAHELIYANHERGFALVSTRSPQIQRLYLQVDAQDHIDNWSDDRIWSELHARLETRDGFKLLEGPIFQKGIVSMRSFVCDPMQHGRLFLAGDAAHIVPPTGAKGLNLAAADVQVLARGLEAYYKAGKMEILNRCTEICLRRIWKAERFSWFMTTMLHRDQGHTPFERGIQLAELDYVTSSRAASTSLAENYIGLPMEF
Km ([1]; pH 8.0, 25.0 °C): 16 ± 1 µM and 19 ± 2 µM and 18 ± 1 µM | Km ([2]; pH 8.0, 25.0 °C): 27 ± 1 µM and 33 ± 2 µM | Km [3]: 49 ± 3 µM and 46 ± 4 µM

B2: Pseudomonas putida KT2440 PobA (para-hydroxybenzoate-3-hydroxylase, PHBH), native, PP_3537, tagless, pobA_EC gene SEQ ID NO: 1 (Pseudomonas putida KT2440) (protein)
chain: MKTQVAIIGAGPSGLLLGQLLHKAGIDNIIVERQTAEYVLGRIRAGVLEQGTVDLLREAGVAERMDREGLVHEGVELLVGGRRQRLDLKALTGGKTVMVYGQTEVTRDLMQAREASGAPIIYSAANVQPHELKGEKPYLTFEKDGRVQRIDCDYIAGCDGFHGISRQSIPEGVLKQYERVYPFGWLGLLSDTPPVNHELIYAHHERGFALCSQRSQTRSRYYLQVPLQDRVEEWSDERFWDELKARLPAEVAADLVTGPALEKSIAPLRSLVVEPMQYGHLFLVGDAAHIVPPTGAKGLNLAASDVNYLYRILVKVYHEGRVDLLAQYSPLALRRVWKGERFSWFMTQLLHDFGSHKDAWDQKMQEADREYFLTSPAGLVNIAENYVGLPFEEVA
Km ([1]; other: NADPH as reducing equivalent, NADPH detection (340 nm), air-saturated, 300 μM NAD(P)H, pH 8, 25° C.): 18 ± 2 µM | Km ([1]; other: NADPH as reducing equivalent, O2 detection (oxygraph), air-saturated, 300 μM NAD(P)H, pH 8, 25° C.): 21 ± 1 µM | Km ([2]; other: NADPH varied, NADPH detection (340 nm), air-saturated, 200 μM 4-hydroxybenzoate, pH 8, 25° C.): 43 ± 3 µM | Km ([2]; other: NADPH varied, O2 detection (oxygraph), air-saturated, 200 μM 4-hydroxybenzoate, pH 8, 25° C.): 66 ± 6 µM
